Source: US20230242902A1, “A HIGHLY ERROR-PRONE […] R[…] FOR TARGETED CONTINUOUS EVOLUTION IN VIVO” (The Regents of the University of California, priority 2017, published 2023)

Tested on: genomic CAN1 gene
Assay: Fluctuation tests of the genomic CAN1 gene (POL3 mutator strains)
Assay type: cell-based, S. cerevisiae
Details: genomic mutation rate
Procedure: To construct POL3 mutator strains, plasmids were transformed into AH22 encoding wild-type POL3 on a URA3 plasmid or Δmsh6 AH22 encoding wild-type POL3 on a URA3 plasmid. Transformants were expanded in selective SC medium and spot plated on selective SC medium or selective SC medium supplemented with 5-FOA (1 g/L) for plasmid shuffle of the plasmid encoding wild-type POL3 via URA3 counter-selection (Boeke et al., 1984).
Fluctuation tests of the genomic CAN1 gene were performed to determine genomic per-base substitution rates. To minimize propagation of POL3 mutator strains, fluctuation tests were performed directly on colonies from plasmid shuffle plates. For each strain, 48 colonies from plasmid shuffle plates were individually scraped and resuspended in 120 μL 0.9% NaCl. 10 μL from each resuspension was diluted and subject to an event counts measurement via flow cytometry. This was done to identify colonies of similar cell count, because fluctuation tests are only appropriate when final population sizes for all replicates are similar. 24 resuspensions with similar event counts were used for fluctuation tests. […] Colonies were counted from titer plates after 2-4 days and from spot plates after 3-6 days. […]
Fluctuation data were analyzed as described above for URA3 fluctuation data, but with mutation frequency parameters for CAN1 (Lang et al., 2008). […]

B1: pol3-01: proofreading deficient pol3-01 allele encodes POL3 (D321A, E323A) (protein, UniProt P15436 1-1097, looked up, variant D321A E323A)
DNA polymerase delta …: MSEKRSLPMVDVKIDDEDTPQLEKKIKRQSIDHGVGSEPVSTIEIIPSDSFRKYNSQGFKAKDTDLMGTQLESTFEQELSQMEHDMADQEEHDLSSFERKKLPTDFDPSLYDISFQQIDAEQSVLNGIKDENTSTVVRFFGVTSEGHSVLCNVTGFKNYLYVPAPNSSDANDQEQINKFVHYLNETFDHAIDSIEVVSKQSIWGYSGDTKLPFWKIYVTYPHMVNKLRTAFERGHLSFNSWFSNGTTTYDNIAYTLRLMVDCGIVGMSWITLPKGKYSMIEPNNRVSSCQLEVSINYRNLIAHPAEGDWSHTAPLRIMSFAIACAGRIGVFPEPEYDPVIQIANVVSIAGAKKPFIRNVFTLNTCSPITGSMIFSHATEEEMLSNWRNFIIKVDPDVIIGYNTTNFDIPYLLNRAKALKVNDFPYFGRLKTVKQEIKESVFSSKAYGTRETKNVNIDGRLQLDLLQFIQREYKLRSYTLNAVSAHFLGEQKEDVHYSIISDLQNGDSETRRRLAVYCLKDAYLPLRLMEKLMALVNYTEMARVTGVPFSYLLARGQQIKVVSQLFRKCLEIDTVIPNMQSQASDDQYEGATVIEPIRGYYDVPIATLDFNSLYPSIMMAHNLCYTTLCNKATVERLNLKIDEDYVITPNGDYFVTTKRRRGILPIILDELISARKRAKKDLRDEKDPFKRDVLNGRQLALKISANSVYGFTGATVGKLPCLAISSSVTAYGRTMILKTKTAVQEKYCIKNGYKHDAVVVYGDTDSVMVKFGTTDLKEAMDLGTEAAKYVSTLFKHPINLEFEKAYFPYLLINKKRYAGLFWTNPDKFDKLDQKGLASVRRDSCSLVSIVMNKVLKKILIERNVDGALAFVRETINDILHNRVDISKLIISKTLAPNYTNPQPHAVLAERMKRREGVGPNVGDRVDYVIIGGNDKLYNRAEDPLFVLENNIQVDSRYYLTNQLQNPIISIVAPIIGDKQANGMFVVKSIKINTGSQKGGLMSFIKKVEACKSCKGPLRKGEGPLCSNCLARSGELYIKALYDVRDLEEKYSRLWTQCQRCAGNLHSEVLCSNKNCDIFYMRVKVKKELQEKVEQLSKW
mutational increase: 58 fold
